experiment: soluble on expression in E. coli; label from the status in PepcDB or PDB records

Soluble on expression in E. coli, not soluble:
MGSDKIHHHHHHMKRIDLNGFWSVRDNEGRFSFEGTVPGVVQADLVRKGLLPHPYVGMNEDLFKEIEDREWIYEREFEFKEDVKEGERVDLVFEGVDTLSDVYLNGVYLGSTEDMFIEYRFDVTNVLKEKNHLKVYIKSPIRVPKTLEQNYGVLGGPEDPIRGYIRKAQYSYGWDWGARIVTSGIWKPVYLEVYRARLQDSTAYLLELEGKDALVRVNGFVHGEGNLIVEVYVNGEKIGEFPVLEKNGEKLFDGVFHLKDVKLWYPWNVGKPYLYDFVFVLKDLNGEIYREEKKIGLRRVRIVQEPDEEGKTFIFEINGEKVFAKGANWIPSENILTWLKEEDYEKLVKMARSANMNMLRVWGGGIYEREIFYRLCDELGIMVWQDFMYACLEYPDHLPWFRKLANEEARKIVRKLRYHPSIVLWCGNNENNWGFDEWGNMARKVDGINLGNRLYLFDFPEICAEEDPSTPYWPSSPYGGEKANSEKEGDRHVWYVWSGWMNYENYEKDTGRFISEFGFQGAPHPETIEFFSKPEEREIFHPVMLKHNKQVEGQERLIRFIFGNFGKCKDFDSFVYLSQLNQAEAIKFGVEHWRSRKYKTAGALFWQFNDSWPVFSWSAVDYFKRPKALYYYARRFFAEVLPVLKKRDNKIELLVVSDLRETKEVSLRLAAYEKKGEKVFEKTYRTVLPADGVSLVDRVELPDDLFFFVEAEVDGVKYRNYRVFRKWRDLELPDPEISLEDMGELIELTAQRPAFGVKILSDEVPEDDFLFLEPGRSITLKKPDGVRGVKSLFDYLR
MGSDKIHHHHHHMKRLAFVISSLGAGGAEKVLSLMSHYLAQKGISLTLISLGDSKSFYPLPAQAKIIALGECRSSKGVIDSLFQNLRRIQKLRQALRAARPDLILSFMTETNILSIIAAKSLGIPVIASEHTNYLWQPSRLWNRLRHLLYPLASATTLLTQRDKENHYGFLPQAKILPNPFDFPPLSPTPKEKIILGVGRLIKDKGFDRLIRAFSRISIGDYQLLIAGEGEERVRLEELIQSLGMEEKIHLLGSQKEIYPLYERASIFVLSSSMEGLSNALIEAMSMGCAVISFDCPYGPSEVITPQENGLLVPLHDEVALQEAMERLIQEEPLRQKLSQNAPKVRERFAIDRVMPQWEELMRSILDSTPSCSKES
MGSDKIHHHHHHMKRMTKIGIYGMAVWMLSACGNGTPDYDATGTFEATEVIVSAEAAGKLLQLEVEEGTRLKAGEEVGLVDTVQLYLKKLQLEASMKSVESQRPDLAKQIAATKQQITTAQREKKRVENLLAAGAANQKQLDDWDAQVTLLQQQLIAQESSLMKSTNSLTEQGNSVSIQVAQVEDQLNKCHIQSPIEGTVLAKYAEGGELASVGKPLFKVGEVDRMYLRAYVTSEQLSQVKLGDKVTVYSDYGNSEQKAYPGVVTWISDRSEFTPKTILTKNERANLVYAVKIAVKNDGSLKIGMYGGVVWKKENP
MGSDKIHHHHHHMKRTPGPNKRGSKRMQPNLKFSRGEFADRLAKTRRAMEARGVDLLIVSDPSNMAWLTGYDGWSFYVHQAVIVPPSGEPVWYGRGQDANGAKRTAYLAQNNIVGYADHYVQSTERHPMDFLSSVLSDRGWGKLTIGVEMDNYWFSAAAFASLQKHLPNARFVDATALVNWQRAVKSPTEIDYMRKAARIVEAMHQRIFDRIEIGMRKCDLVAEIYDAGTRGVDGIGGDYPAIVPLLPSGVDASAPHLTWDDQPMKRGEGTFFEIAGCYNRYHCPLSRTVFLGKPTQEFLDAEKATLEGMEAGLAAAKPGNACEDIANAFFAVLKKYGIVKDNRTGYSIGLSYPPDWGERTMSLRPGDHTELKPGMTFHFMTGLWLETMGLEITESILITETGVECLANVPRKLVVKN
MGSDKIHHHHHHMKSIMDSLFDSPVQTARSSSDSDAHNFFKAGPYAPLAARMRPQSLDEVVGQRHLLDSGKPLQRLIAGSGDASVILYGPPGTGKTTIASLISAGTGHEFVGLSALNSGVKEIREVIDQARRNLIHGKRTVLFIDEVHRFSKTQQDALLAAVENRTVLLVAATTENPSFSVVAPLLSRSLILQLKPLTHDDIKTVLLHALQDKRGLDNRITISDEALEQLVLLSGGDARRSLTYLEAASESLADGEELTPEIIRHNVDKAIVRYDRDGDQHYDVVSAFIKSMRGSDVDAALHYLARMIDAGEDPRFIARRLVIHASEDVGMADPQALSVAVAASQAVALIGMPEARINLAQATIHLATAPKSNAVITAIDAALADVKQGKTGPVPAHLRDGHYAGAKQLGNAVGYKYPHDDPRGIVEQQYIPNGLEDVVYYRPSEHGAEQRIESYLGKLRRIVRGQRR
MGSDKIHHHHHHMKSIPSLDDLDLFARIAQAGGLAVVARQSGVSVPTLSRRMRALELQIGVHLFERGSHGYRVTALGRAFLSETRAFQAEAQRLRRMVATPLMAEVRITAGSWTSAFLAQQLPRFWQEDAQWRPAFLEADTRLDIARRGADIGIRNQRPEQAWLAGRYTGLITYAVYAISDQVRGYVVLPENQAKTPSARWVWSHHGGEVAATARSPRMVADLACAGVGQVVLPRFAAAMFPALQQVGPEIAELSHEEWLVCHHDGRHDPPVRAALEGIAAVLTDTTLRPIGA
MGSDKIHHHHHHMKSKANQSQGLLLFRLSQHQIFALGTLKIRELVPYTPLSKIPQSHPTILGAATIRGHTIPVVDMAAAIGYRPVSDEERQHCYIIITDCQRMIIGFLVRAIDKIIECNWRDIEAPSANLGKNAFLTGVTRYDNQLVQLLDVELLLSKVFPDAPEANRAILTDVQREKLKPRRILLVDDSKVARKQLSDALDSINIPYFVTPDGREALSIMEQAAAEHHPIDILVSDIEMPGLDGYELAFEVRDNPLLANAYIILHTSLSSEISVSQAHQVGANEALTKFDAHELVEAMLRGAELAAKRAN
MGSDKIHHHHHHMKSRKFPIRFENFSLSVDGKSVLENITLSFVEGMNVLYGPRGSGKSSLLRSIVKLNTEIFNEISRSGSVYLFDQNVEDLDDIYVRKNALYLDTSFIDAMNQYTFDEFLKLALKRKISLENFSEKLDDLGILRMLIRGQKTPLSVFSPAEKISLLLFILEQKKPRVILMDCLLDHLDDENLEKIMDMFLKMKEERTFVISTRILQRFLYIADLLVILNNGRINYTGSPKDFVLRM
MGSDKIHHHHHHMKSTIYKALIGATLIIGLSSCVNNWLDVEPGDQVEADEAVTTSADLSSVRAGMYQIIKGTSDFKDYYAARMFYYGEVRGEDMQTEKSGSRSQLCYDMTYSTADNAPSIWQTPYIVIGRANRIIEAAESGKLTDKEEAADIIAQYAAEAKVARAMAHFDLVRVYGKTYTAPDAPNSLGIPVVTTVLGSDSKLIRNTVSEVYTQVIKDLNEAINSKALSESSTPGYINLWAAKALLSRVYLTQGDNQKSLDVAEDIIKNSPYKLWKNEEYVGAWSKISGVHSNEMLFEIAITGSTDWTDREGIAYLYNEDGYADIIATKKFLDLLNEDPNDVRLGVFLAPTTKDFKKLYGTNTVFLNKYPADGLSDLRYNNVPLVRLSEVYLNAAEAAAKLGNQNDKAVEYLDAIVKRANPNKTVKGTTVTVDRVLLERRKELIGEGHRFFDAMRNNETVIRYTSKEDQGWQQALKEEARSFNRDFYKTLLPIPQDEIDANPSMKDQQNTGY
MGSDKIHHHHHHMKVFFVVDIKSGKVVAGKGGERESYPPITAISRLVSSDDALKVIEEIKPRFLYAADLDRIVGLGDNFSLLSKLSKRVEELIADCGFRSPEELEKLPFTPVVGTETFDITQLDRKCYVSLDFKEKFLDASGKFESWEEVVKFLNSFDLYGLIVLPIHAVGAMKPDLSVLTKTLELSEHPVMLGGGISGVEDLERLKEMGCSGVLVATAVHKGKIPLDVVRKGKF
MGSDKIHHHHHHMKVLEKDYQINSVRKAIDAGANSIIALPTGGGKSICILKLCQAMPDKKVVISLRNAALVPQLLHTLTINGLSVSVVKSGYKYIAGGDVTLVMEQSFGRRKHLNIQCDVLLRDEYHVGCMGGVYIAMREELSPDLIIGLTATPIDRLGVYIDKSMQLIEETTTKMLIEAGELAKPVYKVPSLSQEIDYSAVKMYRGDFSVSGLDNILLEHCSLVAQQTVDDALSHGRKVMLFANSINHVESLSEAFDLLGIEHERVHSQRSSDENDESIRRYKSNEVRLIINMSMLTIGFDDPTTDCVVLARPTKILRLYLQIIGRCLRASKGKTSALILDLAQCISTHGFAEDLRDFTRKTSKSAAIMAERLSVTNIGQFVDGEFTYNESIERKVVKKRAPVIRRKPRDGLVASKELVDRAASNRAAALLRLNPRMEKLVSTIELVNIVYEQQDESSKMLDEVAMVKLVALIGFAYSDALVDSCTALVEGLHAQNQSIRGLPLRVSNLITSIAMQDLGVKEVVTKS

— the DeepSol protein solubility set
